Test results as given in PMC6151454, “The Recognition of Calmodulin to the Target Sequence of Calcineurin—A Novel Binding Mode” (Molecules : A Journal of Synthetic Chemistry and Natural …, 2017).

Target: Calmodulin (CaM), chicken, recombinant (chicken, UniProt P62149 2-149)
Assay: circular dichroism titration; various amounts of CaNp added to a fixed amount of CaM; far-UV CD; 100 mM KCl, 2 mM CaCl2, pH 6.5
Settings: both partners purified

stoichiometry N: 1
B1: CaM-binding domain (target peptide) of calcineurin A, residues 391-414 (CaNp) (peptide)
peptide: ARKEVIRNKIRAIGKMARVFSVLR
notes: CaM target domain of the calcineurin catalytic subunit (CaN-A) α-isoform, residue 391-414; 13C,15N-labelled or unlabelled in the NMR samples; also called target peptide of CaN; not shown: CaM with factor Xa cleavage site IEGR (CaM-CaNp hybrid molecule), N-terminal, cleaved
